Measured values published in US20210246166A1 (Bayer, published 2021).
Numbered stars: 1 amine (or outer) side, 2 acyl side, 3 side chain; on linkers, the order of the positions; unused ones are H or OH. Bridge positions count the residues as written; N and C are the ends. Square brackets hold non-standard residues; d marks the D form. Ends that are not written are not given here. X17 = 2‑((1S,2S)-1-(Amino)-2-methylbutyl)‑1,3‑oxazole‑4‑carboxylic acid, CC[C@H](C)[C@H](N[*:1])c1nc(C(=O)[*:2])co1; Pro(4-spirocPr) = O=C(O)[C@@H]1CC2(CC2)CN1; Oic = O=C(O)[C@@H]1C[C@@H]2CCCC[C@@H]2N1; tBuAla = CC(C)(C)C[C@H](N)C(=O)O; Pen = CC(C)(S)[C@H](N)C(=O)O; NMeC = CN[C@@H](CS)C(=O)O; Orn = NCCC[C@H](N)C(=O)O

T1: recombinant rat MASP1 active protease (amino acids 302-704, C-terminal His Tag) (rat, UniProt Q8CHN8 302-704)
T1 sequence: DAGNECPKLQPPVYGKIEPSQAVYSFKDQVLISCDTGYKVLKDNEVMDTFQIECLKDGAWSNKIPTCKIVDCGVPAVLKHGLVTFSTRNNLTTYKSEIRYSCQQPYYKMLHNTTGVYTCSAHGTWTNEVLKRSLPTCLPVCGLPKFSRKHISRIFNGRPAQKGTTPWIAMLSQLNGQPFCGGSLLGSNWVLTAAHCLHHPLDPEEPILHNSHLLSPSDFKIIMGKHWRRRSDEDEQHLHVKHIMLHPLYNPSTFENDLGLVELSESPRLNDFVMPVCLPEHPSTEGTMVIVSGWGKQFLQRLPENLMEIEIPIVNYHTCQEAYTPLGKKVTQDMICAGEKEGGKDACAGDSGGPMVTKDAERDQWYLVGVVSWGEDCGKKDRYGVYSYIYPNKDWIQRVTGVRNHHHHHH


molecular target: T1, recombinant rat MASP1 active protease …; experiment: cell-based or functional assay

| Binder | rat MASP1 IC50 [nM] |
| --- | --- |
| AICSRSLP[Pro(4-spirocPr)]I[Pen]IPD-NH2 (disulfide 3-11; N-terminus assumed; SMILES CC[C@H](C)[C@H](NC(=O)[C@H](C)N)C(=O)N[C@H]1CSSC(C)(C)[C@@H](C(=O)N[C@H](C(=O)N2CCC[C@H]2C(=O)N[C@@H](CC(=O)O)C(N)=O)[C@@H](C)CC)NC(=O)[C@H]([C@@H](C)CC)NC(=O)[C@@H]2CC3(CC3)CN2C(=O)[C@@H]2CCCN2C(=O)[C@H](CC(C)C)NC(=O)[C@H](CO)NC(=O)[C@H](CCCNC(=N)N)NC(=O)[C@H](CO)NC1=O) [Example 17: AIC+SRSLP-((6S)-5-Azaspiro[2.4]heptane-6-carboxylic acid)-I-(Pen)+IPD-NH2] | 31 |
| AICSRS[tBuAla]PPI[NMeC][X17]D-NH2 (disulfide 3-11; N-terminus assumed; SMILES CC[C@H](C)[C@H](NC(=O)[C@H](C)N)C(=O)N[C@H]1CSSC[C@@H](C(=O)N[C@H](c2nc(C(=O)N[C@@H](CC(=O)O)C(N)=O)co2)[C@@H](C)CC)N(C)C(=O)[C@H]([C@@H](C)CC)NC(=O)[C@@H]2CCCN2C(=O)[C@@H]2CCCN2C(=O)[C@H](CC(C)(C)C)NC(=O)[C@H](CO)NC(=O)[C@H](CCCNC(=N)N)NC(=O)[C@H](CO)NC1=O) | 13 |
| AICSRS[tBuAla]P[Oic]I[Pen]IPD-OH (disulfide 3-11; N-terminus assumed; SMILES CC[C@H](C)[C@H](NC(=O)[C@H](C)N)C(=O)N[C@H]1CSSC(C)(C)[C@@H](C(=O)N[C@H](C(=O)N2CCC[C@H]2C(=O)N[C@@H](CC(=O)O)C(=O)O)[C@@H](C)CC)NC(=O)[C@H]([C@@H](C)CC)NC(=O)[C@@H]2C[C@@H]3CCCC[C@@H]3N2C(=O)[C@@H]2CCCN2C(=O)[C@H](CC(C)(C)C)NC(=O)[C@H](CO)NC(=O)[C@H](CCCNC(=N)N)NC(=O)[C@H](CO)NC1=O) [Example 14: AIC+SRS-((tBu)A)-P-(Oic)-I-(Pen)+IPD-OH] | 23 |
| AICSRS[tBuAla]PPI[Pen]IPD-OH (disulfide 3-11; N-terminus assumed; SMILES CC[C@H](C)[C@H](NC(=O)[C@H](C)N)C(=O)N[C@H]1CSSC(C)(C)[C@@H](C(=O)N[C@H](C(=O)N2CCC[C@H]2C(=O)N[C@@H](CC(=O)O)C(=O)O)[C@@H](C)CC)NC(=O)[C@H]([C@@H](C)CC)NC(=O)[C@@H]2CCCN2C(=O)[C@@H]2CCCN2C(=O)[C@H](CC(C)(C)C)NC(=O)[C@H](CO)NC(=O)[C@H](CCCNC(=N)N)NC(=O)[C@H](CO)NC1=O) [Example 12: AIC+SRS-((tBu)A)-PPI-(Pen)+IPD-OH] | 13 |

Further lines, results first:

| rat MASP1 IC50 [nM] | Binder |
| --- | --- |
| 28 | AICSRS[tBuAla]PPI[NMeC]IPD-NH2 (disulfide 3-11; also: HCl salt) [Example 30: AIC+SRS-((tBu)A)-PPI-((N-Me)C)+IPD-NH2 (HCl salt)] |
| 23 | RICSRS[tBuAla]PPI[NMeC]IPD-NH2 (disulfide 3-11; N-terminus assumed; SMILES CC[C@H](C)[C@H](NC(=O)[C@@H](N)CCCNC(=N)N)C(=O)N[C@H]1CSSC[C@@H](C(=O)N[C@H](C(=O)N2CCC[C@H]2C(=O)N[C@@H](CC(=O)O)C(N)=O)[C@@H](C)CC)N(C)C(=O)[C@H]([C@@H](C)CC)NC(=O)[C@@H]2CCCN2C(=O)[C@@H]2CCCN2C(=O)[C@H](CC(C)(C)C)NC(=O)[C@H](CO)NC(=O)[C@H](CCCNC(=N)N)NC(=O)[C@H](CO)NC1=O) [Example 19: RIC+SRS-((tBu)A)-PPI-((N-Me)C)+IPD-NH2] |
| 26 | [Orn]ICSRS[tBuAla]PPI[Pen]IPD-OH (disulfide 3-11; N-terminus assumed; SMILES CC[C@H](C)[C@H](NC(=O)[C@@H](N)CCCN)C(=O)N[C@H]1CSSC(C)(C)[C@@H](C(=O)N[C@H](C(=O)N2CCC[C@H]2C(=O)N[C@@H](CC(=O)O)C(=O)O)[C@@H](C)CC)NC(=O)[C@H]([C@@H](C)CC)NC(=O)[C@@H]2CCCN2C(=O)[C@@H]2CCCN2C(=O)[C@H](CC(C)(C)C)NC(=O)[C@H](CO)NC(=O)[C@H](CCCNC(=N)N)NC(=O)[C@H](CO)NC1=O) [Example 18: (Orn)-IC+SRS-((tBu)A)-PPI-(Pen)+IPD-OH] |
